Results on 13 molecules are retold here after patent US20050147614A1 (CANCER RESEARCH TECHNOLOGY, published 2005).

Positions count from the first letter of the chain named. In names and notes the source's numbering stands. Several values for one entry are separate records, joined by “and”; a condition that tells them apart may be missing. Equal values may be shown once.

For assay [1], the target named is carcinoembryonic antigen (CEA) (UniProt P06731). Description: off-rate analysis on the yeast surface at 37 C.
The target in assay [2] is T1, carcinoembryonic antigen (CEA) (UniProt P06731 35-685, limits assumed, biotinylated (labelled form); unlabelled CEA (Calbiochem) used as competitor in the off-rate assays).
T1 construct: also called biotinylated-CEA; bio-CEA
T1 sequence (looked up): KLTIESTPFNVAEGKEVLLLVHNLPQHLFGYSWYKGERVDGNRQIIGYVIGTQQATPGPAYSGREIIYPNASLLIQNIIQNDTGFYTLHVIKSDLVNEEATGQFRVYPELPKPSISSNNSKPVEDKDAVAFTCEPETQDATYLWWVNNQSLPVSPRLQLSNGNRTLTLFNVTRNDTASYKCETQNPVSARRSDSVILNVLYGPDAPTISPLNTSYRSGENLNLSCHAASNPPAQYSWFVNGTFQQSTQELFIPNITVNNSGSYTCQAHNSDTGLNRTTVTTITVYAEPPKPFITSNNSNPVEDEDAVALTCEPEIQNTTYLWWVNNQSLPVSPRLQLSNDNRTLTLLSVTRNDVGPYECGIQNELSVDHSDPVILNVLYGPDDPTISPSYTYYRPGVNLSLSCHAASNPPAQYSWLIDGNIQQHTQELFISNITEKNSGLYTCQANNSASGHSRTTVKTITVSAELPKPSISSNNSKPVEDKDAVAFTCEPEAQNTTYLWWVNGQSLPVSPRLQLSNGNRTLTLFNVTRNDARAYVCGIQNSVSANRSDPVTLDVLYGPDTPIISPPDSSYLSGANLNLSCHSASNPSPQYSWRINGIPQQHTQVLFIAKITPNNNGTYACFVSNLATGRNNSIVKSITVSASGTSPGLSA
Kind of assay: yeast surface display, equilibrium titration with biotinylated CEA, flow cytometry, 37 C. How it is done: Equilibrium binding constants KD for CEA at 37° C. A) Plot of CEA binding (measured fluorescence) versus CEA concentration. B) CEA binding (normalized for different display levels) versus CEA concentration. […] C) Soluble production of MFE-23 (1) and hMFE (2) at 37° C. for 48 hours. Additional lanes are the scFvs produced at 37° C. and 20° C. for varying amounts of time.
On the technique in general: In flow cytometry, cells or beads pass a laser one at a time.

The target of assay [3] is T1, carcinoembryonic antigen (CEA). Kind of assay: off-rate analysis on the yeast surface at 37 C.
The target is the same in assay [4]. Description: yeast surface display, dissociation of biotinylated CEA in excess unlabelled CEA, flow cytometry. How it is done: Binding analysis of clones isolated from aggressive hMFE Library sort. A) Equilibrium Titration (Example 3). hMFE (kD±8.5±0.5 nM) (●), m9B (kD=0.8±0.1 nM) (▪), m10B (kD=0.08±0.01 nM) (♦)B). Off-rate. Dissociation rates were measured by first labeling yeast displaying the scFv of interest with biotinylated CEA. Then, the labeled cells were washed and incubated with an excess of nonbiotinylated CEA. Dissociation of labeled CEA from the cells was followed at the single cell level by flow cytometry and streptavidin-PE labeling, as described in Example 3. hMFE (koff=1.2±0.1×10⁻³ s⁻¹) (●), m9B (koff=7.5±0.4×10⁻⁵ s⁻¹) (▪), m10B (koff=6.0±0.4×10⁻⁶ s⁻¹) (♦).

Assay [5] has the same target. Kind of assay: yeast surface display, off-rate analysis.
For assay [6] the target is unchanged. Description: yeast surface display, off-rate analysis with biotinylated CEA and excess unlabelled CEA, flow cytometry.
Assay [7] has the same target. Kind of assay: yeast surface display, dissociation of biotinylated CEA in 100-fold excess unlabelled CEA at 37 C, flow cytometry.
Assay [8] shares this target. Description: yeast surface display, equilibrium titration with biotinylated CEA.
For assay [9] the target is unchanged. Kind of assay: yeast surface display, equilibrium titration with biotinylated CEA, flow cytometry.
Assay [10] shares this target. The description is as above. This is another data set of the same source.

For orientation: koff means the rate constant with which the complex falls apart. Read a high koff as fast dissociation. For orientation: Kd means the concentration at which binding is half-saturated. A high value points to lower affinity.

sm3E+T98A (scFv) gave a koff in assay [1] of 1.2e-06 s⁻¹.

B1: humanized MFE-23 (hMFE) scFv (scFv)
scFv: PYDVPDYALQASGGGGSGGGGSGGGGSASQVKLEQSGAEVVKPGASVKLSCKASGFNIKDSYMHWLRQGPGQRLEWIGWIDPENGDTEYAPKFQGKATFTTDTSANTAYLGLSSLRPEDTAVYYCNEGTPTGPYYFDYWGQGTLVTVSSGGGGSGGGGSGGGGSENVLTQSPSSMSASVGDRVNIACSASSSVSYMHWFQQKPGKSPKLWIYSTSNLASGVPSRFSGSGSGTDYSLTISSMQPEDAATYYCQQRSSYPLTFGGGTKLEIKAAAGSEQKLISEEDL
notes: also called hMFE-23; resurfaced scFv
B1: the Kd in assay [2] is 8.3 nM and 8.5 nM. Also, the koff is 0.0009 s⁻¹ in [3] and 0.0012 s⁻¹ in assay [4]. In addition, in assay [5], the “half-life for binding to CEA” value was determined as 0.167 h.

B2: sm10B+T98A (scFv)
chain: B1 scFv with T131A, N184T, S194P, W210L, S213L, M241V
Take B2: the koff in assay [3] was determined as 6.8e-06 s⁻¹.

B3: sm10B (scFv)
chain: B1 scFv with N184T, S194P, W210L, S213L, M241V
As for B3, the koff in assay [3] turned out to be 8.2e-06 s⁻¹; in [6] it was 8.3e-06 s⁻¹.

B4: hMFE+T98A (scFv)
chain: B1 scFv with T131A
Regarding B4, in assay [3], the “fold improvement in off-rate over hMFE” value is 1.5 fold and the koff turned out to be 0.0006 s⁻¹.

B5: m7E (scFv)
chain: B1 scFv with S188N, F199L, S213L, S219P
In [7], B5 displayed a koff of 1.8e-06 s⁻¹.

B6: m9B (scFv)
chain: B1 scFv with F199L
For B6, the “fold improvement in the dissociation constant over hMFE” value in assay [8] is 10 fold. This molecule displayed a Kd in [9] of 0.8 nM. The same molecule returned a koff in assay [4] of 7.5e-05 s⁻¹. Besides, the “fold improvement in the off-rate over hMFE” value in [5] is 16 fold.

B7: sm9B (scFv)
chain: B1 scFv with N184T, S194P, F199L, W210L, M241V
On to B7, for which, in [6], the koff amounted to 0.00011 s⁻¹.

B8: m8E (scFv)
chain: B1 scFv with E83Q, T131A, S213L, S219P
As to B8, the koff in assay [7] stood at 2.6e-06 s⁻¹.

B9: m3E (scFv)
chain: B1 scFv with F199L, S213L
Take B9: the koff in assay [7] is 1.2e-06 s⁻¹. The “half-life for binding to CEA” value in [5] was about 168 h.

B10: m10B (scFv)
chain: B1 scFv with S213L
On to B10, for which the “fold improvement in the affinity over hMFE” value in [8] stood at 100 fold. In [9], this molecule yielded a Kd of 0.08 nM. In assay [4], this molecule returned a koff of 6e-06 s⁻¹. In addition, the “fold improvement in the off-rate over hMFE” value in assay [5] is 200 fold.

B11: sm3E (scFv)
scFv: B1 scFv with A177V, N184T, S194P, F199L, W210L, S213L, M241V
notes: also called stabilized m3E
For B11, binding in assay [10] was characterised by a dissociation constant (Kd) of 0.03 nM. This molecule also displayed a koff in assay [6] of 1.2e-06 s⁻¹.

B12: MFE-23 scFv (scFv)
scFv: QVKLQQSGAELVRSGTSVKLSCTASGFNIKDSYMHWLRQGPEQGLEWIGWIDPENGDTEYAPKFQGKATFTTDTSSNTAYLQLSSLTSEDTAVYYCNEGTPTGPYYFDYWGQGTTVTVSSGGGGSGGGGSGGGGSENVLTQSPAIMSASPGEKVTITCSASSSVSYMHWFQQKPGTSPKLWIYSTSNLASGVPARFSGSGSGTSYSLTISRMEAEDAATYYCQQRSSYPLTFGAGTKLELKRAA
notes: Tested on the yeast surface as an Aga2p fusion in pCTCON, with an HA tag N-terminal and a c-myc tag C-terminal of the scFv
Turning to B12, the Kd in [2] was 8.3 nM and 7.5 nM.
